Measured values as given in publication PMC3570589.

What was measured:
Experiment in all cases: ITC
[1] = molecular target: H3_((28–43))K36me3 peptide (UniProt P68431)
[2] = molecular target: H3_((28–43))K36me1 peptide (UniProt P68431)
[3] = molecular target: H3_((28–43))K36me2 peptide (UniProt P68431)
[4] = molecular target: H3_((27–46))K36me3 peptide (UniProt P68431)

PHF1 Tudor domain protein, wild-type (ITC and silver-stained peptide pull-downs), sequence (O43189 29-86): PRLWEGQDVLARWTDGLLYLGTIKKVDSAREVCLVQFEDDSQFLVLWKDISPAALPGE

Row | Substance | Ka [1] | Kd [1] | dH [1] | stoichiometry N [1] | dH [2] | stoichiometry N [2] | Ka [3] | Kd [3] | dH [3] | stoichiometry N [3] | Kd [4]
1 | PHF1 Tudor domain protein, E66K (from UniProt O43189-1 29-86) (domain or fragment) | 43900 M⁻¹ | 22.8 µM | -6.47 kcal/mol |  |  |  |  |  |  |  | 
2 | PHF1 Tudor domain protein, W41A (from UniProt O43189-1 29-86) (domain or fragment) | 33200 M⁻¹ | 30.1 µM | -1.35 kcal/mol | 0.68 |  |  |  |  |  |  | 
3 | PHF1 Tudor domain protein, wild-type (ITC and silver-stained peptide pull-downs) (from UniProt O43189-1 29-86) (domain or fragment) | 238000 M⁻¹ | 4.2 µM | -5.63 kcal/mol | 0.79 | -0.817 kcal/mol | 0.7 | 51800 M⁻¹ | 19.3 µM | -3.99 kcal/mol | 0.94 | 
4 | PHF19 Tudor domain protein, wild-type (from UniProt Q5T6S3 40-93) (domain or fragment) |  |  |  |  |  |  |  |  |  |  | 5 to 7 µM
